From article PMC10143822, “Structural Adaptation of the Single-Stranded DNA-Binding Protein C-Terminal to DNA Metabolizing Partners Guides Inhibitor Design” (Pharmaceutics, 2023)
Where a SMILES comes first, the peptide text is derived from it. Primed or numbered codes have the meaning given here. Where no end group is shown, it is not given here. [ ]: non-standard residue; d: D form. 5,6‑carboxyfluorescein = 5,6-carboxyfluorescein; Phe(4-CF3) = N[C@@H](Cc1ccc(C(F)(F)F)cc1)C(=O)O; Phe(3-Cl) = N[C@@H](Cc1cccc(Cl)c1)C(=O)O; Phe(4-Cl) = N[C@@H](Cc1ccc(Cl)cc1)C(=O)O; Pip = O=C(O)[C@@H]1CCCCN1; β3hD = NC(CC(=O)O)CC(=O)O; Nle = CCCC[C@H](N)C(=O)O; Pip′ = not defined here

Tests used:
ExoI [1] = target: T1, ExoI (Escherichia coli, UniProt P04995); test: Isothermal titration calorimetry with ExoI; assay type: binding, E. coli; conditions: 20 mM Tris–HCl pH 8.0, 100 mM NaCl
T1 construct: His-tag (cleaved yes); host or cells: E. coli BL21 (DE3) pLysS
Protocol: (§1) Isothermal titration calorimetry (ITC) experiments were performed using a MicroCal VP-ITC titration microcalorimeter. ExoI was dialyzed extensively against the indicated buffer and cleared through centrifugation at 14,000 rpm for 15 min at 4 °C. RecO was subjected to a quick buffer exchange using an Amicon Ultra ultrafiltration device (Sigma). Protein concentrations were determined after the buffer exchange procedure.
(§2) The raw data were integrated using NITPIC [39]. The binding parameters, association equilibrium constant (KA), binding enthalpy (ΔH), and binding entropy (ΔS) were obtained by fitting the titration curves to a model of A + B = C in SEDPHAT [40]. Stoichiometry was fixed to 1:1 and the incompetent fraction was fitted for the protein concentration.

ExoI [2] = conditions: 1 µM biotin-tagged peptide on streptavidin beads, lysate with 1 µM recombinant ExoI, 30 min; on-bead tryptic digestion, nanoLC-MS/MS intensities
Protocol: ExoI and RecO expressing cells were grown and lysed, as mentioned above. A fraction of cell lysate was used to quantify the recombinant protein content. BL21 (DE)3 pLysS cells were grown on LB media until OD600 = 2.0 and lysed using sonication. Recombinant protein containing lysates were diluted with BL21 (DE)3 pLysS lysate, setting the final concentration of the recombinant protein to 1 µM. SSB peptides (wtSSB, E1-sSSB, R2-sSSB) were immobilized onto Streptavidin DynaBeads using an N-terminal biotin tag. Then, 1 µM immobilized peptides were incubated with cell lysate for 30 min. Beads were washed with trypsin digestion buffer (20 mM TRIS pH = 8.0, 100 mM NaCl, 2 mM CaCl2). Beads were processed with an on-pellet digestion protocol. NanoLC-MS/MS analysis was carried out on a Waters ACQUITY UPLC M-Class LC system (Waters, Milford, MA, USA) coupled with a Q Exactive^TM Plus Hybrid Quadrupole-Orbitrap^TM mass spectrometer (Thermo Fisher Scientific, Waltham, MA, USA). The instrument was operated in the data-dependent mode. […]
To test the affinity improvement for E1-sSSB-Ct and R2-sSSB-Ct relative to wtSSB-Ct in a complex environment, we carried out a pull-down assay using bacterial cell lysates. […] The washed bead was digested, and tryptic peptides were detected using HPLC-MS.

RecO = target: T2, RecO (Escherichia coli, UniProt P0A7H3); test: Isothermal titration calorimetry with RecO; assay type: binding; conditions: 50 mM HEPES pH 7.5, 50 mM NaCl, 25% glycerol; read-out: KD, ITC, RecO
T2 construct: His-tag (TEV site) (N, cleaved yes); made in house; host or cells: E. coli Rosetta cells
Protocol: as §1, §2

[3] = target: E1-sSSB with an N-terminal biotin tag, on Streptavidin DynaBeads (E. coli); test: affinity purification with mass spectrometry; pull-down: 1 µM biotin peptide on Streptavidin DynaBeads, 30 min with E. coli lysate holding 1 µM recombinant ExoI or RecO; on-pellet tryptic digestion, nanoLC-MS/MS
[4] = target: R2-sSSB with an N-terminal biotin tag, on Streptavidin DynaBeads (E. coli); test: as above
E. coli Exonuclease I [5] = target: T3, E. coli Exonuclease I (E. coli, UniProt P04995 1-471); test: fluorescence polarisation; direct fluorescence anisotropy: ExoI serially diluted from 16 µM, 50 nM fluorescein-labelled peptide, 30 min, 25 °C; 20 mM Tris-HCl pH 8.0, 100 mM NaCl, 1 mM MgCl2, 1 mM 2-mercaptoethanol, 10% glycerol; conditions: both partners purified
T3 construct: Exonuclease I of E. coli, from plasmid pET14b-E. coli Exonuclease I (Addgene 104552); The His tag was cut off with thrombin only for the purified protein; also called ExoI; Exol; source: E. coli BL21 (DE3) pLysS, purified (Ni-NTA, heparin); also in cell lysate (pull-down)
T3 sequence: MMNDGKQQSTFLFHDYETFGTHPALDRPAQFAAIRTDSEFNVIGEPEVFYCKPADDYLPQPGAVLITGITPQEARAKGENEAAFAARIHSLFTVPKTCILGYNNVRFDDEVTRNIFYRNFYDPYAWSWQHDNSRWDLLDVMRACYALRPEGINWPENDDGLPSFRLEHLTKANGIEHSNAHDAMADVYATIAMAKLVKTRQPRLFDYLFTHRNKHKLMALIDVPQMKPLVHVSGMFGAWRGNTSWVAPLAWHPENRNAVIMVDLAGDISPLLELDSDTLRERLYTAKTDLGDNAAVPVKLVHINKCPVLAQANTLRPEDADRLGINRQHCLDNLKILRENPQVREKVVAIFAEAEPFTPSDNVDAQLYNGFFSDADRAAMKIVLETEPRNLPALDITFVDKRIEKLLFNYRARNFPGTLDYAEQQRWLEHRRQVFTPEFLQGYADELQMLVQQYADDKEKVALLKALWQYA

Escherichia coli RecO [6] = target: T4, Escherichia coli RecO (Escherichia coli, UniProt P0A7H3 1-242); test: fluorescence polarisation; direct fluorescence anisotropy: RecO serially diluted from 7.5 µM, 50 nM fluorescein-labelled peptide, 30 min, 25 °C; 20 mM Tris-HCl pH 8.0, 200 mM NaCl, 1 mM 2-mercaptoethanol, 10% glycerol, 0.01% Triton-X 100; conditions: both partners purified
T4 construct: RecO of Escherichia coli, synthetic gene in pET28a+ with a TEV site at the 5' end; The His tag was cut off with TEV protease only for the purified protein; source: E. coli Rosetta, purified (Ni-NTA, heparin); also in cell lysate (pull-down); not shown: His tag, N-terminal, cleaved
T4 sequence: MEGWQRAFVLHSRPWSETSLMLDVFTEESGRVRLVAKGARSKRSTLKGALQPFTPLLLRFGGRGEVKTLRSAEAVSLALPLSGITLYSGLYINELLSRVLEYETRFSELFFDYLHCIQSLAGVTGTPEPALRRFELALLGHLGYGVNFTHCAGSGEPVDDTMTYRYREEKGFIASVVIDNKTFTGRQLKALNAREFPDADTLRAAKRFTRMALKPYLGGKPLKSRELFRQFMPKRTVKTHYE

Escherichia coli RecO [7] = target: T4, Escherichia coli RecO; test: fluorescence polarisation; competition fluorescence anisotropy: 0.5 µM RecO, 50 nM F-wtSSB tracer, 0–500 µM unlabeled peptide, 30 min at room temperature, read at 25 °C; 20 mM Tris-HCl pH 8.0, 200 mM NaCl, 1 mM 2-mercaptoethanol, 10% glycerol, 0.01% Triton-X 100; conditions: both partners purified
Escherichia coli RecO [8] = target: T4, Escherichia coli RecO; test: as above; conditions: both partners purified; remark: listed apart in the source
E. coli Exonuclease I [9] = target: T3, E. coli Exonuclease I; test: ITC; peptide in the syringe titrated into ExoI in the cell; 20 mM Tris–HCl pH 8.0, 100 mM NaCl, 1 mM MgCl2, 4% glycerol, 1 mM β-mercaptoethanol; model A + B = C, stoichiometry fixed to 1:1, incompetent fraction fitted; conditions: both partners purified
Escherichia coli RecO [10] = target: T4, Escherichia coli RecO; test: ITC; peptide in the syringe titrated into RecO in the cell; 50 mM HEPES pH 7.5, 50 mM NaCl, 25% glycerol, 1 mM TCEP; model A + B = C, stoichiometry fixed to 1:1, incompetent fraction fitted; conditions: both partners purified
E. coli Exonuclease I [11] = target: T3, E. coli Exonuclease I; test: fluorescence polarisation; competition fluorescence anisotropy: 0.5 µM ExoI, 50 nM F-wtSSB tracer, 0–500 µM unlabeled peptide, 30 min at room temperature, read at 25 °C; 20 mM Tris-HCl pH 8.0, 100 mM NaCl, 1 mM MgCl2, 1 mM 2-mercaptoethanol, 10% glycerol; conditions: both partners purified
E. coli Exonuclease I [12] = target: T3, E. coli Exonuclease I; test: as above; conditions: both partners purified; remark: listed apart in the source

T1 sequence (P04995 whole entry): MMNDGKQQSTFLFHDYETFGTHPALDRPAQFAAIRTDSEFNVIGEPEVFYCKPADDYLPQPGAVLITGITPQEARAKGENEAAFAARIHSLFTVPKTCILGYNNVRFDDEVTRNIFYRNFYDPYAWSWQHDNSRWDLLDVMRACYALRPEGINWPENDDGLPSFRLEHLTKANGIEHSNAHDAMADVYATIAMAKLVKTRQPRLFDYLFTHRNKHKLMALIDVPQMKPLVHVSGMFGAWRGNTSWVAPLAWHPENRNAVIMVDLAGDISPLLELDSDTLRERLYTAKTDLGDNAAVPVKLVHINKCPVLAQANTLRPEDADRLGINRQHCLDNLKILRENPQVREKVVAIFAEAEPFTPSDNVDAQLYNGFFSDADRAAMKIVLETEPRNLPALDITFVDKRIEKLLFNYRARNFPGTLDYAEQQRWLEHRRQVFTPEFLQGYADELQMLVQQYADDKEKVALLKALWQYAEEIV

Molecule: CC(=O)N[C@@H](CCC(=O)O)C(=O)N[C@@H](Cc1ccc(C(F)(F)F)cc1)C(=O)N[C@@H](CC(=O)O)C(=O)N[C@@H](CC(=O)O)CC(=O)N[C@@H](CCC(=O)O)C(=O)N[C@@H](CC(C)C)C(=O)N1CCCC[C@H]1C(=O)N[C@@H](Cc1ccc(C(F)(F)F)cc1)C(=O)O [E1-sSSB-Ct] (Ac-E[Phe(4-CF3)]D[β3hD]EL[Pip][Phe(4-CF3)]-OH)
- ΔG, ITC, ExoI (ExoI [1]): -10.89 kcal/mol
- −TΔS, ITC, ExoI (ExoI [1]): 6.46 kcal/mol
- N (stoichiometry), ITC, ExoI (ExoI [1]; 1 mM MgCl2, 4% glycerol, model A + B = C, stoichiometry fixed 1:1, incompetent fraction fitted): 1.0000
- ΔH, ITC, ExoI (ExoI [1]; confidence interval in brackets): −17.35 (−18.34–−16.43) kcal/mol
- Kd (ExoI [1]; read-out: KD, ITC, ExoI (in nM), 1:1 stoichiometry): 19 nM
- enrichment of ExoI on immobilized peptide compared to wtSSB-Ct (ExoI [2]): two-fold

Molecule: CC[C@H](C)[C@H](NC(=O)[C@H](CC(=O)O)NC(=O)[C@H](CC(=O)O)NC(=O)[C@H](CC(=O)O)NC(=O)[C@H](Cc1ccc(Cl)cc1)NC(=O)[C@H](CC(=O)O)NC(C)=O)C(=O)N1CCC[C@H]1C(=O)N[C@@H](Cc1cccc(Cl)c1)C(=O)O [R2-sSSB-Ct] (Ac-D[Phe(4-Cl)]DDDIP[Phe(3-Cl)]-OH)
- Kd (RecO): 35 nM

B1: E. coli Exonuclease I (enzyme)
chain: MMNDGKQQSTFLFHDYETFGTHPALDRPAQFAAIRTDSEFNVIGEPEVFYCKPADDYLPQPGAVLITGITPQEARAKGENEAAFAARIHSLFTVPKTCILGYNNVRFDDEVTRNIFYRNFYDPYAWSWQHDNSRWDLLDVMRACYALRPEGINWPENDDGLPSFRLEHLTKANGIEHSNAHDAMADVYATIAMAKLVKTRQPRLFDYLFTHRNKHKLMALIDVPQMKPLVHVSGMFGAWRGNTSWVAPLAWHPENRNAVIMVDLAGDISPLLELDSDTLRERLYTAKTDLGDNAAVPVKLVHINKCPVLAQANTLRPEDADRLGINRQHCLDNLKILRENPQVREKVVAIFAEAEPFTPSDNVDAQLYNGFFSDADRAAMKIVLETEPRNLPALDITFVDKRIEKLLFNYRARNFPGTLDYAEQQRWLEHRRQVFTPEFLQGYADELQMLVQQYADDKEKVALLKALWQYA
- fold enrichment as compared to wtSSB-Ct [3]: 2 fold

B2: Escherichia coli RecO (natural protein)
chain: MEGWQRAFVLHSRPWSETSLMLDVFTEESGRVRLVAKGARSKRSTLKGALQPFTPLLLRFGGRGEVKTLRSAEAVSLALPLSGITLYSGLYINELLSRVLEYETRFSELFFDYLHCIQSLAGVTGTPEPALRRFELALLGHLGYGVNFTHCAGSGEPVDDTMTYRYREEKGFIASVVIDNKTFTGRQLKALNAREFPDADTLRAAKRFTRMALKPYLGGKPLKSRELFRQFMPKRTVKTHYE
- fold enrichment as compared to wtSSB-Ct [4]: 10 fold

B3: fluorescein-labeled wtSSB-Ct (peptide)
peptide: {5,6‑carboxyfluorescein}-GGDFDDDIPF
notes: two glycines between the 5,6-carboxyfluorescein and the peptide; also called F-SSB-Ct; F-wtSSB-Ct; source: synthetic peptide (solid phase, HPLC purified)
- EC50 (E. coli Exonuclease I [5]): 350 ± 40 nM
- EC50 (Escherichia coli RecO [6]): 370 ± 30 nM

B4: F-Glu5 (fluorescein-labelled single mutant) (peptide)
peptide: {5,6‑carboxyfluorescein}-GGDFDDEIPF
notes: two glycines between the 5,6-carboxyfluorescein and the peptide; E. coli SSB-Ct, residues 171-178; numbers count on: the octapeptide (position 1 = SSB residue 171); One of Compounds 54-62 of the Supplementary Material; also called F-mSSB Glu5; source: synthetic peptide
- EC50 (E. coli Exonuclease I [5]): 110 ± 10 nM
- EC50 (Escherichia coli RecO [6]): 200 ± 20 nM

B5: mSSB-Ct nLe6 (unlabelled single mutant) (peptide)
chain: Ac-DFDDD[Nle]PF
- IC50 (Escherichia coli RecO [7]): 2550 nM

B6: wtSSB-Ct, octapeptide identical to the SSB C-terminal acidic tip (residues 171-178 of SSB) (peptide)
peptide: Ac-DFDDDIPF
notes: also called wild-type SSB-Ct; source: synthetic peptide (solid phase, HPLC purified)
- IC50 (Escherichia coli RecO [8]): 4660 ± 240 nM
- Kd (E. coli Exonuclease I [9]): 3070 nM
- dH (E. coli Exonuclease I [9]): -10.7 kcal/mol
- stoichiometry N (E. coli Exonuclease I [9]): 0.959
- Kd (Escherichia coli RecO [10]): 140 nM
- dH (Escherichia coli RecO [10]): -7.54 kcal/mol
- stoichiometry N (Escherichia coli RecO [10]): 1
- IC50 (E. coli Exonuclease I [11]): 4540 ± 340 nM

B7: mSSB-Ct Leu6 (unlabelled single mutant) (peptide)
peptide: Ac-DFDDDLPF
notes: E. coli SSB C-terminal tip (SSB-Ct), residues 171-178; numbers count on: the octapeptide (position 1 = SSB residue 171); also called isoleucine to leucine at position 6; source: synthetic peptide
- IC50 (Escherichia coli RecO [7]): 3220 nM

B8: R2-sSSB-Ct (Asp–4Cl-Phe–Asp–Asp–Asp–Ile–Pro–3Cl-Phe) (peptide)
peptide: Ac-D[Phe(4-Cl)]DDDIP[Phe(3-Cl)]
notes: SSB-Ct of E. coli SSB (residues 171-178), printed in three-letter code; F2 stands for 4Cl-Phe, F8 for 3Cl-Phe; numbers count on: the octapeptide (position 1 = SSB residue 171); source: synthetic peptide
- Kd (Escherichia coli RecO [10]): 40 nM
- dH (Escherichia coli RecO [10]): -23.5 kcal/mol
- stoichiometry N (Escherichia coli RecO [10]): 1
- IC50 (Escherichia coli RecO [7]): 590 nM

B9: E1-sSSB-Ct (Glu–4-CF3-Phe–Asp–β^3-Asp–Glu–Leu–Pip–4-CF3-Phe) (peptide)
chain: Ac-E[Phe(4-CF3)]D[β3hD]EL[Pip′][Phe(4-CF3)]
modifications: not fully specified; printed as E1-sSSB-Ct (Glu–4-CF3-Phe–Asp–β^3-Asp–Glu–Leu–Pip–4-CF3-Phe)
- Kd (E. coli Exonuclease I [9]): 20 nM
- dH (E. coli Exonuclease I [9]): -17.4 kcal/mol
- stoichiometry N (E. coli Exonuclease I [9]): 1
- IC50 (E. coli Exonuclease I [12]): 170 nM

B10: F-nLe6 (fluorescein-labelled single mutant) (peptide)
chain: {5,6‑carboxyfluorescein}-DFDDD[Nle]PF
- EC50 (E. coli Exonuclease I [5]): 200 ± 10 nM
- EC50 (Escherichia coli RecO [6]): 200 ± 10 nM
